Measurements taken from the nanobody polyreactivity screen of Harvey et al. (2022).

Assay: yeast display, Sf9 membrane polyspecificity reagent, FACS + sequencing; frameworks hold sequencing errors
Summary of the method: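 Galactose-induced (36–48 hours) yeast carrying a synthetic nanobody display library were exposed to 10% biotinylated, detergent-solubilized Sf9 membrane reagent at 4 °C for 1 hour. FACS followed streptavidin microbead enrichment, using low and high (top ~1%) gates for expression (anti-HA) and reagent binding (streptavidin). Colony PCR, MiSeq 2 × 250 sequencing and CDR-length filtering followed. Labels for polyreactivity reflect the gate of origin.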

Sequence	polyreactivity (PSR sort gate)
QVQLVESGGGLVQAGGSLRLSCAASGLIFAEYTMGWYRQAPGKERELVAAISWNGGSTYYADSVKGRFTISRDNAKNTVYLQMNSLKPEDTAVYYCAARYKRVKWYRYEYWGQGTQVTVSS	high polyreactivity
QVQLVESGGGLVQAGGSLRLSCAASGLIFAFYAMGWYRQAPVKERELVASIDKSGGSTYADSVKGRFTISRDNAKNTVYLQMNSLKQEDTAVYYCAADYSLIDLFYWGQGTQVTVSS	low polyreactivity
QVQLVESGGGLVQAGGSLRLSCAASGLIFAGYAMGWYRQAPGKERELVAAITWRGGRTYADSVKGRFTISRDNAKNTVYLQMNSLKPEDTAVFYCAVRRWGTSFVEDDYWGQGTQVTVSS	low polyreactivity
QVQLVESGGGLVQAGGSLRLSCAASGLIFASYAMGWYRQAPGKERELVAAISWSGGSTYYADSVKGRFTISRDNAKNTVYLQMNSLKPEDTAVYYCAARKLFIPKYYYWGQGTQVTVSS	high polyreactivity
QVQLVESGGGLVQAGGSLRLSCAASGLIFATYTMGWYRQAPGKERELVAAITWSGGRTYYADSVKGRFTISRDNAKNTVYLQMNSLKPEDTAVYYCAADPSYALGYDYWGQGTQVTVSS	high polyreactivity
QVQLVESGGGLVQAGGSLRLSCAASGLIFAYNTMGWYRQAPGKERELVAGITSGGSTYYADSVKGRFTISRDNAKNTVYLQMNSLKPEDTAVYYCAAAYRTGSVSFGYWGQGTQVTVSS	high polyreactivity
QVQLVESGGGLVQAGGSLRLSCAASGLIFDGNAMGWYRPAPGKERELVADITGSSVRTYYADSVKGRFTISRDNAKNTVSLQMNSLIPEDTAVYYCAATYGYLYTGLSRYDYWGQGTQVTVSS	low polyreactivity
QVQLVESGGGLVQAGGSLRLSCAASGLIFDPNTMGWYRQAPGKERELVAAISSGGDTNYADSVKGRFTISRDNAKNTVYLQMNSLKPEDTAVYYCATDIRFHDPSEYEGVDFEFWGQGTQVTVSS	low polyreactivity
QVQLVESGGGLVQAGGSLRLSCAASGLIFDSYDMGGSRQAPGKERELVAAIRRNGGSTYYADSLKGRFTISRDNAKNTVYLQMNSLIPEDTEVYYCAVDNSGYSGVYWVKMDYWGQGTQVTVSS	low polyreactivity
QVQLVESGGGLVQAGGSLRLSCAASGLIFDTNAMGWYRQAPGKERELVAAISLDGGSTYYADSVKGRFTISRDNAKNTVYLQMNSLKPEDTAVYYCNADYYANSITYDSWGQGTQVTVSS	low polyreactivity
QVQLVESGGGLVQAGGSLRLSCAASGLIFDTYAMGWYRQAPGKERELVADITWSGGSTYYADSVKGRFTISRDNAKNTVYLQMNSLKPEDTAVYYCAADSVSLFYWDQRYPDEYDYWGQGTQVTVSS	low polyreactivity
QVQLVESGGGLVQAGGSLRLSCAASGLIFESYVMGWYRQAPGKERELVAAIRSSGGSTYYADSVKGRFTISRDNAKNTVYLQMNSLKPEVTAVYYCSVKGYGEYDYWGQGTQVTVSS	low polyreactivity
QVQLVESGGGLVQAGGSLRLSCAASGLIFEYYAMGWYRQAPGKERELGAAISGSGGSTYYADSVKGRFTISRDNAKNTVSLQMNSRKPEDTAVDYCNVVGYRWSEFDYWGQGTQVTVSS	low polyreactivity
QVQLVESGGGLVQAGGSLRLSCAASGLIFFHNGMGWYRQAPGKEREFVAVISSSGGSTYYADSVKGRFTISRDNAKNTVYLQMNSLKPEDTAVYYCAARDYSRRYGYWGQGTQVTVSS	high polyreactivity
QVQLVESGGGLVQAGGSLRLSCAASGLIFFTYAMGWYRHAPGKERELVATISRGGRTKYADSVKGRFTISRDNAKNTVYLQMNSLKPEDTAVYYCAAYLSRSYYAYDYWGQGTQVTVSS	high polyreactivity
QVQLVESGGGLVQAGGSLRLSCAASGLIFFYYPMGWYRQAPGKEWEMVAAIRTNYADSVKGRFTISRDNAKNTVDLQMYSLKREDTADYYCAAESSQTPTSAFDYWGQGTQVTVSS	low polyreactivity
QVQLVESGGGLVQAGGSLRLSCAASGLIFGPYAMGWYRQAPGKERELDAAITSSGGSTYNADSVKGRFTISRDNAKKSVYLQMNSLKPEDTAVYYCAARGSPRYYARYNYWGQGTQVTVSS	low polyreactivity
QVQLVESGGGLVQAGGSLRLSCAASGLIFGRNAMGWYRQAPGKERELVAAITSGGSTYYADSVKGRFTISRDNAKNTVYLQMNSLKPEDTAVYYCFVDYYPYDYWGQGTQVTVSS	low polyreactivity
QVQLVESGGGLVQAGGSLRLSCAASGLIFGRYAMGWYRQAPGKERELVAAINRNGGSTYYADSVKGRFTISRDNAKNTVYLQMNSLKPEDTAVYYCAAQYRSSRGHYDYWGQGTQVTVSS	high polyreactivity
QVQLVESGGGLVQAGGSLRLSCAASGLIFGRYAMGWYRQAPGKERELVAAISSSGVRTYYADSVKGRFTISRDNAKNTVYLQMNSLNPEDTAVYYCAAYDWYISEDYRYYYFWEYDYWGQGTQVTVSS	high polyreactivity
QVQLVESGGGLVQAGGSLRLSCAASGLIFGSYVMGWYRQAPGKERELVAAISSSGGSTYYADSVKVRFTISRDNENNTFYLQMNSLKPEDTAVYYCAARYTYSADKGYYWGQGTQVTVSS	high polyreactivity
QVQLVESGGGLVQAGGSLRLSCAASGLIFGVNAMGWYRQAPGKERELVAGISGSTGSTYYADSVKGRFTISRDNAKNTLYVQMNSLKPEDSAVYYCAKRSRRRGYRYDYWGQGTQVTVSS	high polyreactivity

Sequence	polyreactivity (PSR sort gate)
QVQLVESGGGLVQAGGSLRLSCAASGLIFGWYAMGWDRQAPGKERELVAAITRSGGSTYYADSVKGRFTISRDTAKNTVYLQMHSLKPEDTAVYSCAAEIHYSYTRGYGYWGQGTQVTVSS	high polyreactivity
QVQLVESGGGLVQAGGSLRLSCAASGLIFGWYAMGWYRQAPGKERELVAAITRSGGSTYYADSVKGRFTISRDNAKNTVYLQMNSLKPEDTAVYYCAARSYVPSYDYWGQGTQVTVSS	high polyreactivity
QVQLVESGGGLVQAGGSLRLSCAASGLIFGWYAMGWYRQAPGKERELVAGISGSGGITYYADSVKGRFTISRDNAKNTVYLQMNSLKPEDTAVYYCATAAASHKYGYWGQGTQVTVSS	low polyreactivity
QVQLVESGGGLVQAGGSLRLSCAASGLIFGYNAMGWYRQAPGKEREFVAGISSSGVSTYYADSVKGRFTISRDNAKNTVYLQMNSLKPEDTAVYYCAADTVDLEFDYWGQGTQVTVSS	low polyreactivity
QVQLVESGGGLVQAGGSLRLSCAASGLIFGYYAMGWYRQAPGKEREFVAAIDGSDGTTYYADSVKGRFTISRDNAKNTVYLQMTSQKPEDTAVYYCNADSSSYSSDLGYDYWGQGTQVTVSS	low polyreactivity
QVQLVESGGGLVQAGGSLRLSCAASGLIFGYYAMGWYRQAPGKERELVARITRRGGSTYYADSVKGRFTISRDNAKNTVYLQRNSLKPEDTAVYYCAADWYSPRISREYDYWGQGTQVTVSS	high polyreactivity
QVQLVESGGGLVQAGGSLRLSCAASGLIFHSYAMGWYRQAPGKERELVAAISKRGGSTYYADSVKGRFTISRDNAKNTVYLQMNSLKPEDTAVYYCAAGARGLYDYWGQGTQVTVSS	high polyreactivity
QVQLVESGGGLVQAGGSLRLSCAASGLIFIFNTMGWYRQAPGKERELVAAISWSGTSTYYADSVKGRFTISRDNAKNTVYLQMHSLKPEDTAVYYCAARGYYYKYSTARRNYWGQGTQVTVSS	high polyreactivity
QVQLVESGGGLVQAGGSLRLSCAASGLIFIIYTMGWYRQAPGKERELVAAITRRGGITYYADSVKGRFTISRDYAKNTVYLQMNSLKPEDTAVYYCAVVRPYNIWYDYWGQGTQVTVSS	low polyreactivity
QVQLVESGGGLVQAGGSLRLSCAASGLIFKFYPMGWYRQAPGKERELVASIRGSGDNTYYADSVKGRFTISRDNAKNTVYLQMNSLKPEDTAVYYCNARASYSWHGIRGKYDYWGQGTQVTVSS	high polyreactivity
QVQLVESGGGLVQAGGSLRLSCAASGLIFKGYDMGWYRQAPGKERELVAAISSGSTNYADSVKGRFTISRDNAKNTGYLQMNSLKPEDTAVYYCNADLGRATFYQRVFIERGGYWGQGTQVTVSS	low polyreactivity
QVQLVESGGGLVQAGGSLRLSCAASGLIFKLNAMGWYRQAPGKARELVAAIRASTGSTYYADSVKGRFTISRDNAKNTVYLQMNSLKPEDTAVYYCAVRLRWYFFLMDYWGQGTQVTVSS	high polyreactivity
QVQLVESGGGLVQAGGSLRLSCAASGLIFLGNAMGWYRQAPGKERELVAAISRSGGTTYYADSVKGRFTISRDNEKNTVYLQMNSLKPEDTAVYYCNAYNPYYRATVSSRGYGYWGQGTQVTVSS	high polyreactivity
QVQLVESGGGLVQAGGSLRLSCAASGLIFLGYARGWYRQSPGKERELVASIRTGGSTSYADSVKGRFTISRDNAKNTVYLQMNSLKPEDTAVYYCAADRGRPNLPGDYWGQGTQVTVSS	low polyreactivity
QVQLVESGGGLVQAGGSLRLSCAASGLIFLPYAMGWYRQAPGKERELVAAIRWSDDSTYYADSVKGRFTILRDNAKNTVYLQMNSLKPEDTAVYYCNAYVYRPSYIYNYYYEYDYWGQGTQVTVSS	high polyreactivity
QVQLVESGGGLVQAGGSLRLSCAASGLIFNLYAMGWYSQAPGKEREFVATITGIGGSTYYADSVKGRFTISRDNAKNTVYLQMNSLKPQDTAVYYCAADAWFLPYNYWGQGTQVTVSS	low polyreactivity
QVQLVESGGGLVQAGGSLRLSCAASGLIFPIYTMGWYRQAPGKERELVAAISSRGGSTYYADSVKGRFTISRDNAKNTVYLQMNSLKPEDTAVYYCAAQFRFSGMGYWGQGTQVTVSS	high polyreactivity
QVQLVESGGGLVQAGGSLRLSCAASGLIFPVYTLGWYRPAPGKERELVAAITSSGDSTYYADSVKGRFTISRDNAKNTVYVQMNSLKPEDTAVYYCAARLVEKYGGTYSFDYWGQGTQVTVSS	low polyreactivity
QVQLVESGGGLVQAGGSLRLSCAASGLIFPYYAMGWYRQAPGKERELVAAISGSGGRTYNADSVKWRFTISRDNAKNTVYLQMNSLKPEDPAVYYCAAAVLDRYTRYIWYIFDYWGQGTQVTVSS	high polyreactivity
QVQLVESGGGLVQAGGSLRLSCAASGLIFPYYAMGWYRQAPGKERELVATITRSGGNTYYADSVKGRFTISRDNAKNTVYLQMNSLKPEDTAVYYCATRYAGYRSYGYWGQGTQVTVLS	high polyreactivity
QVQLVESGGGLVQAGGSLRLSCAASGLIFQVYDMGWYRQAPGKERELVAAISSGSNTNYADSVKGRFTISRDNAKNTVYLQMNSLKPEDTAVYYCAASLGYGAMTPDMGYWGQVTQVTVSS	low polyreactivity
